Laboratory results as given in the nanobody polyreactivity screen of Harvey et al. (2022).

Test: yeast display, Sf9 membrane polyspecificity reagent, FACS + sequencing; frameworks hold sequencing errors
Method in brief: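 Sorting gates, low and high (top ~1%), were placed on anti-HA fluorescence to track expression and on streptavidin fluorescence to track reagent binding. A clone's polyreactivity label is taken from the gate it came out of. The reagent was 10% biotinylated, detergent-solubilized Sf9 membrane, applied for 1 hour at 4 °C to galactose-induced yeast display cells.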

| Sequence | polyreactivity (PSR sort gate) |
| --- | --- |
| QVQLVESGGGLVQAGGSLRLSCAATGFTFEYYAMGWYRKAPGKERELVAAITSGGSTNYADSVKVRFTISRDNAKNTVSLQKNSLKPEDTAVYYCATSGNNYYYALYGYWGQGTQVTVSS | low polyreactivity |
| QVQLVESGGGLVQAGGSLRLSCAATGFTFHHYVMGWYRHAHGKEREFVASIRWRGGSTYYADSVKGRFTISRDNAKNTVYLQMNSLKPEDTAVYYCAADSFTYWSWLHGYWGQGTQVTVSS | high polyreactivity |
| QVQLVESGGGLVQAGGSLRLSCAATGFTFRWYAMGWYRQAPGKERELVAAITSDDNTYYADSVKGRFTISRDNAKNTVYLQMNSLKPEDTAVYYCAAEYADYWTYIMGYWGQGTQVTVSS | low polyreactivity |
| QVQLVESGGGLVQAGGSLRLSCAATGHTFHGYAMGWYRPAPGKERELVAAITSTGGSTHYADSVKGRFTISRDNAKNTVYLQMNSLKPEDTAVYYCAKRSYGLTRAYSAGNYWGQGTQVTVSS | low polyreactivity |
| QVQLVESGGGLVQAGGSLRLSCAATGIIFSWYDMGWYRQAPGKERELVAAITSGGSTYYADSVKGRFTISRDNAKNTVYLLMNSLKPEDTAVYYCNRYSYLFPYYWKYDYCGQGTQVTVSS | high polyreactivity |
| QVQLVESGGGLVQAGGSLRLSCAATGITFYINAMGSYRQAPGKERELVAVIDSRGSSTFYADSVKGRFTISLDYAKNTVYLQMNSLKPEDTAVYYCAVEGYPGRYRDPGDLYYYWGQGTQVTVSS | low polyreactivity |
| QVQLVESGGGLVQAGGSLRLSCAATGRIFAYNTMGWYRQAPGKERELVAVITSGGSTNYADSVKGRFTISRDNAKNTVYLQMNSLNPEDTAVYYCAKRPYGRSGGSRYDYWGQGTQVTVSS | high polyreactivity |
| QVQLVESGGGLVQAGGSLRLSCAATGRIFDYNVMGWSRQAPGKERELVADINGCGGRTNYADSVKGRFTISRDNAKNSVYLQMNSLKPEDTAVYDCAAEWYSYGARSSYGGSRNDYWGQGSQVTVSS | low polyreactivity |
| QVQLVESGGGLVQAGGSLRLSCAATGRIFGQNAMGWYRQAPGKERELVAAINWSVGSTYYADSVKGRFTISRDNAKNTVYLQMNSLKPEDTGVYYCAAGNLYYAEYDYWGQGTQVTVSS | low polyreactivity |
| QVQLVESGGGLVQAGGSLRLSCAATGRIFSIYAMGWYRQAPGKERELVAAISGGGSTYYADSVKGRFTISRDNAKNTVYLQMNSLKPEDTAVYYCAALQSYYRYFGYDYWGQGTQVTVSS | low polyreactivity |
| QVQLVESGGGLVQAGGSLRLSCAATGRIFTRNAMGWYRQAPGKERELVAAISYSGGTTYYADSVKGRFTISRDNAKITVYLQMNSLKPDDTAVYDCAALRPTQRYFTYDYWGHGTQVTVSS | high polyreactivity |
| QVQLVESGGGLVQAGGSLRLSCAATGRIFWDYAMGWYRQAPGKERELVAANAWGSGRTYYADSVKGRFTISRDNAKNTVNLQMNSLKPEDTAVYYCHAVRYLFIYPRYDYWGQGTQVTVSS | high polyreactivity |
| QVQLVESGGGLVQAGGSLRLSCAATGRIFYPYAMGWYRQAPGKERELVATIRWRGGSTRYADSVKGRFTISRDNAKNTVFLQMNSLKPEDTAVYYCAAGFKVEPTDLYYWGQGTQVTVSS | high polyreactivity |
| QVQLVESGGGLVQAGGSLRLSCAATGRTIHGYAMGWYRQAPGKERELVAAITGTGGRTYYADSVKGRFTISRDNAKNTVYLQMNSLKPEDTAVYYCAARPWIKSGYWGQGTQVTVSS | high polyreactivity |
| QVQLVESGGGLVQAGGSLRLSCAATGSIFIRYAIGWYRHEPGKERELVAAITSTGSTSYADSVKWRFTISRDNAKNTVYLQMNSLKPEDTAVYYCAAAGFWHGYFGYGYWGQGTQVTVSS | low polyreactivity |
| QVQLVESGGGLVQAGGSLRLSCAATGSIFNVNAMGWYRQAPGKERELVAAISSGGDTYYADSVKGRFTISRDNAKNTVYIQMNSLQPEDTAVYYCAKQSYTLYTLLYDYWGQGTQVTVSS | low polyreactivity |

| Sequence | polyreactivity (PSR sort gate) |
| --- | --- |
| QVQLVESGGGLVQAGGSLRLSCAATGSIFRRNAMGGYRQAPGKERELVAAISSNGGSTYYADSVKGRFTISRDNAKNTVYLQMNSLKPEDTAVYYCNALGRVRYPFDYWGQGTQVTVSS | high polyreactivity |
| QVQLVESGGGLVQAGGSLRLSCAATGSNLIYVMGGYRQAPGKERELVASITFSGGSTYYADSVKGRFTISRDNAKNTVYLQMNRLKPEDTAVYYCAAVPLWDYKFFYYMLYDYWGQGTQVTVSS | low polyreactivity |
| QVQLVESGGGLVQAGGSLRLSCAAWSIFYLNAMGLYRQAPGKERELVAAISWGGGSTNYADSVKGRFTISRDNAKNTVYLQMNSLKPEDTAVYYCARTPESLSAREFNYWGQGTEVTVSS | low polyreactivity |
| QVQLVESGGGLVQAGGSLRLSCAAYGFFFPFYTMGWYRQAPGKERELVAAIRYSAGRTYYADSVKGRFTISRDNAKNTVYLQMNSLKPEDTAVYYCAADAIYSRAWGFDYWGQGTQVTVSS | high polyreactivity |
| QVQLVESGGGLVQAGGSLRLSCAAYGFISPSYAMGWYRQAPGKERELVAAIRSSDGSTYYADSVKGRFTISRDNAKNTVYLQMNSLKPEDTAVYYCAARRVTSPFGSDSWGQGTQVTVSS | low polyreactivity |
| QVQLVESGGGLVQAGGSLRLSCAAYGFIVPAYAMGWYRQAPGKERELVAAISWDGGSTYYADSVKGRFTISRDNAKNTVYLQMNSLKPEDTPVYYCAATFFADTWYGWYDYWGQGTQVTVSS | high polyreactivity |
| QVQLVESGGGLVQAGGSLRLSCAAYGFTFAFYALGRYRQSPGKERELVAAITGSGGSTYYADSVKGRFTISRDNSKNTVYLQMNSLKPEDTAVYYCNTYTYYSRMDYWGQGTQVTVSS | high polyreactivity |
| QVQLVESGGGLVQAGGSLRLSCAAYGGIFPSYAMGWYRQAPGKERELVAAISRTGGSTYYADSVKGRFTISRDNAKNTVYLQMNSLKPEDTAVYYCAAEWAWYLGVYRRDRMYWGQGTQVTVSS | high polyreactivity |
| QVQLVESGGGLVQAGGSLRLSCAAYGINFLQYAMGWYRQAPGKDRELVAAITRRGDRTYYADSVKGRFTISRDNAKYTVYLQMISLKPEDTAVYYCAASYWYRDYYYWGQGTQVTVSS | high polyreactivity |
| QVQLVESGGGLVQAGGSLRLSCAAYGLTFRVYTMGWYRQAPGKERELVAAISTDGGSTYYADSVKGRFTISRDNAKNTVYFQMNSLKPEDTAVYYCAAKWYSYRWTQFDYWGQGTQVSVSS | high polyreactivity |
| QVQLVESGGGLVQAGGSLRLSCAAYGNIFHRNAMGWYRKAPGKESEVVAAISWSGGSTYYADSVKGRFTISRDNAKNTVYLQMNSLKPEDTAVYYCNAYYYYRFKQSHPGLRSYYWGQGTQVTVSS | high polyreactivity |
| QVQLVESGGGLVQAGGSLRLSCAAYGNIIYYNAMGWYRQATGKERELVASITWSGGSTYYADSVKGRFTISRDNAKNTVYLQMNSLKPEDTAVYYCAAGYSPPKPYSGGYYYWGQGTQVTVSS | low polyreactivity |
| QVQLVESGGGLVQAGGSLRLSCAAYGRIFSRNAMGWYRQAPGKERELVAAITSSGGSTYYADSVKGRFTISRDNAKNTVYLQMNSLKPEDTAVYYCNAVSRWWPAGFDYWGQGTQVTVSS | high polyreactivity |
| QVQLVESGGGLVQAGGSLRLSCAAYGRIFSYYAMGWYRQAPGKERELVATINSGGSTNYADSVKGRFTISRDNAKNTVYLQMNSLKPEDTAVYYCDASPVWWYDYWGQGTQVTVSS | low polyreactivity |
| QVQLVESGGGLVQAGGSLRLSCAAYGRILRYYAMGWYRQAPGKERELVASITSGGSTYYADSVKGRFTISRDNAKNTVYLQMNSLKPEDTAVYYCAARNIYRVDLSYYAYDYWGQGTQVTVSS | high polyreactivity |
